Results taken from patent publication US8071348B2, “Protein tyrosine phosphatase substrate-trapping double mutant and uses thereof” (Albert Einstein College of Medicine of Yeshiva University, priority 2002, dated 2011).
Where two headings read alike, the source gives them in different places.

Assays:
[1] = target: T1, EGFR^988-998 peptide, DADEpYLIPQQG (Homo sapiens, UniProt P18031, Q262A); details: cited from earlier work
T1 construct: The catalytic domain of PTP1B (residues 1 to 321) was used for in vitro study; made in house; host or cells: E. coli (pT7-7 plasmids)
T1 sequence (P18031 1-321 Q262A): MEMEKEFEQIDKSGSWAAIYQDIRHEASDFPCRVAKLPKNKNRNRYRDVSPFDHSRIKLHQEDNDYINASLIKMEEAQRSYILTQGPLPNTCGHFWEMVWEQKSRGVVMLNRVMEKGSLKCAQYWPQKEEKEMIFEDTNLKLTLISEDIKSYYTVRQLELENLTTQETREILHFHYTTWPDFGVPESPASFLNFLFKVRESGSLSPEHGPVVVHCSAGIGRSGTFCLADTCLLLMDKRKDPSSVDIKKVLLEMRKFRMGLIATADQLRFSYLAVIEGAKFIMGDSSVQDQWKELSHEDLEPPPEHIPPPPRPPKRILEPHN

[2] = pNPP as substrate, cited from earlier work
EGF receptor = assay: Substrate protection: EGF receptor tyrosine phosphorylation in COS1 cells expressing PTP1B forms (anti-pTyr Western blot); type: cell-based, Monkey; details: COS1 cell lysates, anti-pTyr immunoblot (FIG. 4)
Description: FIG. 4 sets forth Western blots (WB) that show the level of tyrosine phosphorylation in the epidermal growth factor receptor (EGFR) upon expression of the wild-type and mutant PTP1Bs (4 μg plasmid/60 mm dish) in COS1 cells. Samples (50 μg total protein) were taken from the lysates of COS1 cells transfected with 4 μg of pJ3H plasmids expressing HA-tagged wild-type PTP1B, D181A, C215S, D181A/Q262A, or D181A/C215S. These samples were loaded into each lane for SDS-PAGE electrophoresis, and transferred onto a nitrocellulose membrane. The proteins on the membrane were first immunoblotted with anti-pTyr HRP conjugate (upper panel). The membrane was then stripped and re-probed with anti-hemagglutinin (anti-HA) HRP conjugate (lower panel).
The hemagglutinin-tagged (HA-tagged) full-length human wild-type PTP1B in pJ3H expression vector was a gift from Dr. Chemoff (30). The HA-tagged PTP1B mutants, C215S, D181A, D181A/C215S, and D181A/Q262A, were generated by PCR reactions, according to the standard procedure of the Quick-Change™ site-directed mutagenesis kit (Stratagene), using pJ3H-HA-PTP1B as a template. All mutations were verified by DNA sequencing.
Monkey kidney COS1 cells (ATCC: CRL-1650) were maintained in Dulbecco's modified Eagle's minimum essential medium (DMEM), supplemented with 10% fetal bovine serum (Life Technologies, Inc.), penicillin (50 units/ml), streptomycin (50 μg/ml), and L-glutamine (2 mM) under a humidified atmosphere containing 5% CO2. In transient transfection experiments, COS1 cells were inoculated at a density of 2×10^5 cells/60-mm dish, and grown overnight in DMEM containing 10% fetal bovine serum. Transfection was performed using LipoTAXI^R according to the manufacturer's recommendations (Stratagene, Cedar Creek, Tex.). Each transfection assay included 4 μg of purified DNA mixed with LipoTAXI^R in a 1:5 DNA:lipid ratio per 60-mm dish of cells. Following transfection, the cells were exchanged to normal culture medium, and maintained for 44 to 48 h at 37° C. and 5% CO2. The efficiency of transfection, as assessed by 5-bromo-4-chloro-3-indolyl-β-D galactoside (X-Gal) staining of pCMV-β-gal-transfected (β-Gal staining kit, Invitrogen) COS cells, was 25%.
The transfected cells (treated with or without EGF) were lysed with “lysis buffer” containing 50 mM Tris-HC1 (pH 7.5), 5 mM EDTA, 150 mM NaCl, 10 mM sodium phosphate, 10 mM sodium fluoride, 5 mM iodoacetic acid, 1 mM benzamidine, 1% Triton X-100, 10 μg/ml leupeptin, and 5 μg/ml Aprotinin. Lysate protein concentration was estimated using Bio-Rad protein assay reagent (Bio-Rad, Hercules, Calif.).
For immunoprecipitation, 1 mg of cell lysate was immunoprecipitated overnight with 30 μl of agarose-conjugated anti-hemagglutinin antibody at 4° C. Immunocomplexes were washed four times with the cell lysis buffer, and boiled for 5 min in SDS-PAGE sample buffer. Proteins in the cell lysate were separated by 8% SDS-PAGE under reducing conditions, according to the method of Laemmli (31), followed by blotting onto nitrocellulose membranes (Protran, Schleicher & Schuell). The nitrocellulose membranes were blocked with 5% non-fat dry milk in Tris-buffered saline/Tween (TBST) buffer (20 mM Tris-HC1, 150 mM NaCl, 0.1% Tween-20; pH 7.6) for 1 h at 25° C.
Thereafter, blots were incubated overnight with primary antibodies diluted in TBST containing 5% non-fat dry milk at 4° C. […]

[3] = Kinetic constants for PTP1B-catalyzed hydrolysis of pNPP; type: biochemical; details: pNPP as substrate; 25° C. and pH 7.0
Text: (§1) The catalytic domain of PTP1B (residues 1 to 321) was used for in vitro study. PTP1B mutants, C215S, D181A, and Q262A, were described previously (9, 25, 26). PTP1B double mutants, D181A/C215S and C215S/Q262A, were generated by PCR reactions, according to the standard procedure of the Quick-Change™ site-directed mutagenesis kit (Stratagene), using pT7-7/PTP1B/C215S as a template. PTP1B double mutants, D181A/C215E and D181A/Q262A, were generated by similar PCR procedures, using pT7-7/PTP1B/D181A as a template. The recombinant wild-type and mutant PTP1Bs were expressed in E. coli, and purified to homogeneity as described (25, 27). Protein concentration was determined from absorbance measurement at 280 nm, using an absorbance coefficient of 1.24 for 1 mg/ml PTP1B.
PTP activity was assayed at 25° C. and pH 7.0, in a reaction mixture (0.2 ml) containing pNPP concentrations ranging from 0.2 to 5 Km. The following buffered solution was used for activity measurements: pH 7.0, 50 mM 3,3-dimethylglutarate, 1 mM EDTA; the ionic strength was 0.15 M, as adjusted by addition of NaCl. Initial rate measurements for the enzyme-catalyzed hydrolysis of pNPP were conducted as previously described (26). Michaelis-Menten kinetic parameters were determined from a direct fit of the data to the Michaelis-Menten equation, using the nonlinear regression program, KINETASYST (Intellikinetics, State College, Pa.).

[4] = tested on: EGFR^988-998 peptide, DADEpYLIPQQG; assay: Kinetic constants for PTP1B-catalyzed hydrolysis of pTyr-containing EGFR988-998 peptide; type: biochemical; details: EGFR988-998 peptide as substrate; 25° C. and pH 7.0
Text: as §1
All assays were performed at 25° C. in buffer (pH 7.0, ionic strength=0.15 M) containing 50 mM 3,3-dimethylglutarate and 1 mM EDTA. A continuous spectrophotometric assay, previously described (28), was employed to determine kcat and Km for the pTyr-containing peptides. The dephosphorylation reaction was monitored by either an increase in absorbance at 282 nm, or an increase in fluorescence at 305 nm. Fluorometric and absorbance determinations were performed on a Perkin-Elmer LS50B fluorometer and a Perkin-Elmer Lambda 14 spectrophotometer, respectively. The instruments were equipped with a water-jacketed cell holder, permitting maintenance of the reaction mixture at the desired temperature (25° C.).

[5] = target: T2, EGFR 988-998 peptide DADEpYLIPQQG
T2 chain: DADEXLIPQQG

[6] = target: Ac-Asp-Ala-Asp-Glu-F2Pmp-Leu-NH2; details: ITC, 25° C. and pH 7.0; data from (24); cited from earlier work
[7] = EGFR988-998 peptide as substrate, 30° C. and pH 7.0 (26)
[8] = hydrolysis of EGFR988-998 peptide and phosphorylated lysozyme, previous kinetic studies (18, 26)

B1: Q262A: PTP1B mutant, Gln262 replaced by Ala, described previously (protein, UniProt P18031 1-435, looked up, variant Q262A)
Tyrosine-protein phosphatase …: MEMEKEFEQIDKSGSWAAIYQDIRHEASDFPCRVAKLPKNKNRNRYRDVSPFDHSRIKLHQEDNDYINASLIKMEEAQRSYILTQGPLPNTCGHFWEMVWEQKSRGVVMLNRVMEKGSLKCAQYWPQKEEKEMIFEDTNLKLTLISEDIKSYYTVRQLELENLTTQETREILHFHYTTWPDFGVPESPASFLNFLFKVRESGSLSPEHGPVVVHCSAGIGRSGTFCLADTCLLLMDKRKDPSSVDIKKVLLEMRKFRMGLIATADQLRFSYLAVIEGAKFIMGDSSVQDQWKELSHEDLEPPPEHIPPPPRPPKRILEPHNGKCREFFPNHQWVKEETQEDKDCPIKEEKGSPLNAAPYGIESMSQDTEVRSRVVGGSLRGAQAASPAKGEPSLPEKDEDHALSYWKPFLVNMCVATVLTAGAYLCYRFLFNSNT
[1]; [7]
  Km: 0.35 ± 0.05 µM
  kcat: 0.29 ± 0.002 s^−
[1]; EGFR988-998 peptide as substrate, (26)
  fold reduction of kcat: 150 fold
[1]; EGFR988-998 peptide as substrate, shown previously (26)
  fold decrease in Km: 7.4 fold
[1]; [8]
  fold reduction of kcat: 100 fold
  fold reduction of kcat/Km: 10 fold
[2]; 30° C. and pH 7.0 (26)
  Km: 58 ± 6 µM
  kcat: 0.21 ± 0.01 s⁻¹
[2]; (26)
  fold reduction of kcat: 80 fold
[2]; shown previously (26)
  fold decrease in Km: 38 fold

B2: wild-type PTP1B, catalytic domain (residues 1 to 321) (protein)
chain: MEMEKEFEQIDKSGSWAAIYQDIRHEASDFPCRVAKLPKNKNRNRYRDVSPFDHSRIKLHQEDNDYINASLIKMEEAQRSYILTQGPLPNTCGHFWEMVWEQKSRGVVMLNRVMEKGSLKCAQYWPQKEEKEMIFEDTNLKLTLISEDIKSYYTVRQLELENLTTQETREILHFHYTTWPDFGVPESPASFLNFLFKVRESGSLSPEHGPVVVHCSAGIGRSGTFCLADTCLLLMDKRKDPSSVDIKKVLLEMRKFRMGLIQTADQLRFSYLAVIEGAKFIMGDSSVQDQWKELSHEDLEPPPEHIPPPPRPPKRILEPHN
EGF receptor
  level of pTyr in the EGF receptor / enhancement of EGF receptor phosphorylation: comparable to that in the vector control
[3]
  Km: 2400 ± 200 µM
  kcat: 9.8 ± 0.5 s⁻¹
[4]
  Km: 2.6 ± 0.3 µM
  kcat: 30 ± 1 s^−
[5]
  Km (hydrolysis of the EGFR 988-998 peptide, 25 C, pH 7.0): 2.6 µM
[6]
  Kd: 240 ± 50 nM
